2 molecules from EP4063497B1 can be followed below.

Where only a bound is given, the exact number is not on record here.

The experiment concerns the target IMP-4-type carbapenemase. Description: indirect ELISA, plate coated with IMP-4-type carbapenemase at 0.2 ug/mL, purified antibody serially diluted from 1:1,000. To be noted: scale: dilution factor. (An ELISA detects its analyte on a solid surface through an enzyme-linked reagent.)

B1: anti-IMP-type carbapenemase antibody 1AA4 (antibody, V domains shown)
VH: VQLVVSGGGLVNPDGSLKLSCAASGFTFSDYYMYWVRQTPEKRLEWVAIISDGGSYTYYPDSVKGRFTISRDNAKNNLYLQMSGLRSEDTAMYYCVRGSFDVWGAGTTVTVSA
VL: DIVMTQSPLTLSVTLGQPASISCRSSQSLLDSGGKTYLNWFLQRPGQSPKRLIYLVSKLDSGVPDRFTGSGSGTDFTLRISRVEAEDLGIYYCFQYTHFPQCTFGGGTTLEIKR
As for B1, the titer was more than 640000.

B2: anti-IMP-type carbapenemase antibody AH9 (antibody, V domains shown)
VH: VKLQQSGAELVKPGASVKISCKASGYTFTDYNMDWVKQSHGKSLEWIGDINPNYDSTRYNQKFKGKATLTVDKSSSTAYMELRSLTSEDTAVYYCARDGRYAMDYWGQGTSVTVSS
VL: DIVMTQSPSSLSVSAGEKVTLTCKSSQSLLNSGHQKNYLAWYQQKPGQPPKLLIYGASTRKSGIPDRFTGSGSGTDFTLTISSVQAEDLAVYYCQNDHRYPLTFGAGTKLELKR
B2: the titer is more than 640000.
